Assay results: patent publication US20080311122A1, “Antagonists of Hmgb1 and/or Rage and Methods of Use Thereof” (Medimmune, LLC, priority 2005, published 2008)

B1: S10: human anti-HMG1 antibody; VL/VH aa SEQ ID NO: 58/60 (antibody, listed as Homo sapiens, V domains shown)
VH: EVQLLESGGGLVQPGGSLRLSCAASGFTFSWYDMWWVRQAPGKGLEWVSWIVPSGGITAYADSVKGRFTISRDNSKNTLYLQMNSLRAEDTATYYCARGNYGPSPFDYWGQGTLVTVSS
VL: AQDIQMTQSPGTLSLSPGERATLSCRATQSVRKNFLAWYQQKPGQAPRLLIYDASSRATGIPDRFSGSGSGTDFTLTISRLEPEDFAVYYCQQYGNSPIIFGQGTRLEIK
B2: G9: human anti-HMG1 antibody; VL/VH aa SEQ ID NO: 34/36 (antibody, listed as Homo sapiens, V domains shown)
VH: EVQLLESGGGLVQPGGSLRLSCAASGFTFSSYDMFWVRQAPGKGLEWVSRISPSGGYTYYADSVKGRFTISRDNSKNTLYLQMNSLRAEDTAVYYCARLRYFDSRGYAFDIWGQGTMVTVSS
VL: AQDIQMTQSPGTLSLSPGERATLSCRASQSVRSSYLAWYQQKPGQAPRLLIYGASTRATGIPDRFSGSGSGTDFTLTISRLEPEDFAVYYCQQYGTSRWTFGQGTKVEIK
B3: S16: human anti-HMG1 antibody, ATCC PTA-6259; VL/VH aa SEQ ID NO: 13/15 (antibody, listed as Homo sapiens, V domains shown)
VH: EVQLLESGGGLVQPGGSLRLSCAASGFTFSWYSMLWVRQAPGKGLEWVSYISPSGGFTNYADSVKGRFTISRDNSKNTLYLQMNSLRAEDTAVYYCARWDYNSGWYYDHWGQGTLVTVSS
VL: AQDIQMTQSPDTLSLSPGERATLSCRASQSVNSRNLAWYQQKPGQAPRLLIYGASTRATGIPDRFSGSVSGTEFTLTISSLQPDDFATYYCQQYNSYFTFGQGTKLEIK
B4: E11: human anti-HMG1 antibody, recognizes HMG1 A-Box; VL/VH aa SEQ ID NO: 24/26 (antibody, listed as Homo sapiens, V domains shown)
VH: EVQLLESGGGLVQPGGSLRLSCAASGFTFSRYQMNWVRQAPGKGLEWVSSISPSGGHTHYADSVKGRFTISRDNSKNTLYLQMNSLRAEDTAVYYCAKDGRQGKISTVDHWGQGTLVTVSS
VL: AQDIQMTQSPGTLSLSPGERATLSCRASQSVRSNFLAWYQQKPGQAPRLLIYGASRRASGIPDRFSGSGFGADFTLSISRLEPEDFAVYYCQQYGSSPNTFGQGSRVEIK
B5: S17: human anti-HMG1 antibody; VL/VH aa SEQ ID NO: 70/72 (antibody, listed as Homo sapiens, V domains shown)
VH: EVQLLESGGGLVQPGGSLRLSCAASGFTFSYYDMHWVRQAPGKGLEWVSRISPSGGYTWYADSVKGRFTISRDNSKNTLYLQMNSLRAEDTAVYYCTRGRYTSGWHEYFDPWGQGTLVTVSS
VL: AQDIQMTQSPSSLSASVGDRVTITCRASQSIGTYLNWYQQKPGTAPKVLIYAASSLQSGVPSRFSGSGSGTDFTLTISSLQPEDFSTYYCQQSYNTPRTFGQGTKLEIK
B6: S12: human anti-HMG1 antibody; VL/VH aa SEQ ID NO: 62/64 (antibody, listed as Homo sapiens, V domains shown)
VH: EVQLLESGGGLVQPGGSLRLSCAASGFTFSKYIMHWVRQAPGKGLEWVSGIVPSGGLTEYADSVKGRFTISRDNSKNTLYLQMNSLRAEDTATYYCAKEIFGQFDYWGQGTLVTVSS
VL: AQSALTQPPSVSAAPRQRVTISCSGSTSNIGNNAVTWYQYFPGKAPKLLIYSDNQRPSGVPDRFSGSKSGTSASLAITGLQAEDEADYYCQSYDRGLSVVFGGGTKLTVL
B7: G20: human anti-HMG1 antibody; VL/VH aa SEQ ID NO: 46/48 (antibody, listed as Homo sapiens, V domains shown)
VH: EVQLLESGGGLVQPGGSLRLSCAASGFTFSWYDMFWVRQAPGKGLEWVSWISPSGGYTKYADSVKGRFTISRDNSKNTLYLQMNSLRAEDTAMYYCARSGLDYYDSSGYLDAFDIWGQGTMVTVSS
VL: AQDIQMTQSPSSVSASVGDRVTITCRASQDVSIWLAWYQQKPGKAPKLLIFGASRLQSGVPSRFSGSRSGADFTLTIDSVQPEDFASYYCQQADSFPLTFGGGTKVEIK
B8: G2: human anti-HMG1 IgG1 from Fab phage display library; VL/VH aa SEQ ID NO: 30/32 (antibody, listed as Homo sapiens, V domains shown)
VH: EVQLLESGGGLVQPGGSLRLSCAASGFTFSWYKMQWVRQAPGKGLEWVSGISPSGGSTAYADSVKGRFTISRDNSKNTLYLQMNSLRAEDTAVYYCAKMGLFNTGNSYVDYWGQGTLVTVSS
VL: AQSELTQPPSVSEAPGQRVTISCSGSTSNIGNNAVIWYQQLPGKAPKLLIYYDDLLPSGVSDRFSGSKSGTSGSLAISGLQSEDEADYYCASWDDNLNGPLFGGGTKLTVL

How the values were obtained:
[1] = Isoelectric focusing gel electrophoresis; format: physicochemical
Protocol: Isoelectric Focusing Gel Electrophoresis: Isoelectric points were determined using a Pharmacia Biotech Multiphor 2 electrophoresis system with a multi temp 3 refrigerated bath recirculation unit and an EPS 3501 XL power supply. Pre-cast ampholine gels (Amersham Biosciences, pI range 2.5-10) were loaded with 5 μg of protein. Broad range pI marker standards (Amersham, pI range 3-10, 8 μL) were used to determine relative pI for the Mabs. Electrophoresis was performed at 1500 V, 50 mA for 105 minutes. The gel was fixed using a Sigma fixing solution (5×) diluted with purified water to 1×. Staining was performed overnight at room temperature using Simply Blue stain (Invitrogen). Destaining was carried out with a solution that consisted of 25% ethanol, 8% acetic acid and 67% purified water. Isoelectric points were determined using a Bio-Rad Densitometer relative to calibration curves of the standards.

[2] = test system: native activated HMG1 stimulated IL-6 release from human PBMCs; assay: Inhibition of cytokine release from PBMCs, native activated HMG1; format: cell-based
Protocol: Inhibition of Cytokine Release: Human peripheral blood mononuclear cells (PBMCs) were isolated from the peripheral blood of healthy volunteers by a density gradient centrifugation. Freshly drawn heparinized whole blood was mixed with two volume of PBS. The diluted blood was gently layered on the surface of Histopaque-1077 (Sigma-Aldrich) and centrifuged at 400×g, at RT for 30 minute. PBMCs were collected from the interface between the plasma and the density gradient solution. After washing in PBS 3×, the purified PBMCs were resuspended in RPMI-1640 medium (GIBCO BRL) containing 100 U/ml penicillin, 100 μg/ml streptomycin and […] β-mercaptoethanol. 1×10^5 of cells was added in each well of 96-well cell culture plates.
The PBMCs were incubated for two hours at 37° C. with 5% CO2. recombinant HMG1, at 4 μg/ml, or native activated HMG1 from 2.4×10^5 LPS stimulated THP-1 cells, and different concentrations of human anti-HMGB-1 monoclonal antibodies, a RAGE-FC fusion protein or an HMG1 A-box-Fc fusion protein were added into each well. The culture media was supplemented with 8 U/ml (1 μg/ml) Polymyxin B sulphate (Sigma-Aldrich) to inhibit potential endotoxin. PBMCs from the same donor without stimulation with HMG1 were used as controls. The cell-free culture media were harvested after 14 hours and stored at −20° C.
The culture media were analyzed for inflammatory cytokines using Beadlyte human multi-cytokine flex kit from Upstate by Luminex 100 (Luminex Corp.). Proinflammatory cytokines TNF-α, IL-6, IL-1β and IL-12 (p40) were measured for cells stimulated with recombinant HMG1. In addition, TNF-α, IL-6, IL-1β and IL-8 were measured for cells stimulated with native activated HMG1.
Cytokine release data is presented as mean of triplicates±standard deviations. IC50 for anti-HMGB1 monoclonal antibody is defined as the concentration of antibody required yielding one-half maximal inhibition of the cytokine release from PBMCs stimulated by HMGB1. It was calculated by PRISM program.

[3] = test system: mouse CLP model of sepsis; assay: Cecal ligation and puncture (CLP) model of sepsis; format: in vivo; conditions: percent protection, isotype control subtracted
Protocol: Anti-HMGB1 in Sepsis: To establish live intra-abdominal infection and sepsis, Balb/C mice (9-11 per group) were subjected to the CLP procedure as described previously (Fink and Heard, 1990, J Surg Res 49:186-196; Wichmann et al., 1996, J Surg Res 65, 109-114). After anesthesia with an intramuscular injection of ketamine (75 mg/kg, Fort Dodge Laboratories, Fort Dodge, Iowa) and xylazine (20 mg/kg, Bochringer Ingelheim), a 15-mm midline incision was made to expose the cecum. After ligation 5.0 mm from the tip, the cecal stump was punctured once with a 22-gauge needle, and small amount of stool (1-mm length) was extruded. The cecum was placed back into its normal intra-abdominal position, and the wound was closed with two layers of running suture. All animals received saline-solution (0.9% s.c., 20 ml/kg of body weight) resuscitation, and a single dose of antibiotic (0.5 mg of imipenem per mouse in 200 μl of sterile saline injected s.c.) (Primaxin, Merck) 30 min after surgery.
Anti-HMG1 antibodies or isotype control antibodies (50 μg/mouse in a 200 μl volume), were administered intraperitoneally at 24 and 48 hours, post surgery. In certain follow up experiments anti-HMG1 antibodies or isotype control antibodies (8 mg/kg) were administered intraperitoneally at 24 hours, post surgery (FIG. 11C-D). These experiments were blinded—the surgeons randomized the cages, and the encoded antibodies were dosed by another investigator. The survival of the mice was monitored twice daily for a total of 14 days. The survival curves for several representative experiments where the antibodies were delivered at 50 μg/mouse at times 24 and 48 are shown in FIGS. 11A and 11B. The survival curve generated by combining several representative experiments where the antibodies were delivered at 8 mg/kg 24 hours post surgery is shown in FIG. 11C. Several additional antibodies and the oligoclonal antibody pool were tested at 8 mg/kg administered 24 hours post surgery (FIG. 11D).

recombinant HMG1 = target: T1, recombinant HMG1 (Homo sapiens, UniProt P09429); assay: HMG1 binding affinity via BIAcore analysis
T1 construct: made in house; host or cells: E. coli
T1 sequence (P09429 1-215): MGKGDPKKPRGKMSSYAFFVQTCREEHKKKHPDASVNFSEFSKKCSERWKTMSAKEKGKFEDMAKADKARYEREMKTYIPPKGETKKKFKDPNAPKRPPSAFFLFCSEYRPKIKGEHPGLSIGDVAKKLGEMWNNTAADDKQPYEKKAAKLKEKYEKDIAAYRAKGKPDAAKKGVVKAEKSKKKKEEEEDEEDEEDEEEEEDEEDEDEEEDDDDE
Protocol: HMG1 Binding Affinity via BIAcore Analysis: All experiments were performed on a BIAcore 3000 instrument (BIAcore, Inc., Piscataway, N.J.). Briefly, each mAb was immobilized to a CM5 sensor chip using a standard amino coupling chemistry. Separately a reference (control) flow cell was also prepared. Two-fold, serial dilutions of HMG1 in instrument buffer were sequentially injected at a slow flow rate over the individual mAb and reference flow-cell surfaces. Following the binding and dissociation of HMG1, the mAbs surfaces were regenerated with a brief pulse of 1M NaCl-50 mM NaOH. At the end of each experiment, the binding curves were evaluated using a steady-state model available through the BIA evaluation software supplied by BIAcore, Inc. (Piscataway, N.J.).

Molecule | PI [1] | block of IL-6 release induced by native activated HMG1 [2] | in vivo CLP [3] | Kd (recombinant HMG1) [µM]
B1 | 8.76 |  |  | 
B2 | 9.01 | less effective |  | 
B3 | 8.11 | able to block IL-6 released induced by native activated HMG1 | 60-75% | 
B4 | 8.92 | able to block IL-6 released induced by native activated HMG1 | 35% | 
B5 | 8.7 | able to block IL-6 released induced by native activated HMG1 |  | 0.331
B6 | 8.73 |  |  | 
B7 | 7.8 |  |  | 0.114
B8 | 7.78 |  | 60% | 0.101
